Results: US20200079854A1 (Johns Hopkins, published 2020)

Key:
[1] = biological target: KRAS wt(8-16) peptide … with HLA-A11 and b2M on peptide-pulsed MINO cells (human); assay: flow cytometry, phage-displayed scFv on peptide-pulsed MINO cells (FIG. 10)
Protocol: (§1) Cells were stained with 10 μL of precipitated phage per 100 μL of cells, washed and stained with rabbit anti-M13 antibody, then washed and stained with anti-Rabbit-PE antibody. Cells were stained with a live/dead Near-IR dye, washed, and analyzed by an LSRII flow cytometer.
(§2) The pulsed cells were pelleted, washed once in cold stain buffer (PBS containing 0.5% BSA, 2 mM EDTA, and 0.1% sodium azide), and resuspended in 100 μL of stain buffer. Phage staining was performed on ice with 10 uL (approximately 1×10⁹) phage for 1 hour in 100 uL total volume, followed by one 4 mL wash in cold stain buffer. Cells were then stained with 1 uL of rabbit anti-M13 antibody (Pierce, Rockford, Ill.) in 100 uL total volume on ice for 1 hour and washed once with 4 mL of cold stain buffer. Cells were stained with anti-rabbit-PE (Biolegend) on ice for 1 hour in 100 uL total volume, followed by incubation with LIVE/DEAD Fixable Near-IR Dead Cell Stain (Thermo Fisher) for 10 min at room temperature per manufacturer's instructions. Cells were washed once in 4 mL of stain buffer followed by resuspension in 300 uL of stain buffer before analysis. Stained cells were analyzed using an LSRII flow cytometer (Becton Dickinson, Mansfield, Mass.).

[2] = biological target: H/K/N RAS wt(55-64) peptide … with HLA-A1 and b2M on peptide-pulsed SigM5 cells (human); assay: flow cytometry, phage-displayed scFv on peptide-pulsed SigM5 cells (FIG. 14)
Protocol: as §1, §2

[3] = biological target: p53 wt(245-254) peptide … with HLA-A2 and b2M on peptide-pulsed T2 cells (human); assay: flow cytometry, phage-displayed scFv on peptide-pulsed T2 cells (FIG. 4)
Protocol: as §1, §2

Binder | binding result [1] | binding result [2] | also measured
KRAS_G12D_A11_c119 (scFv) scFv: DIQMTQSPSSLSASVGDRVTITCRASQDVNTAVAWYQQKPGKAPKLLIYSASFLYSGVPSRFSGSRSGTDFTLTISSLQPEDFATYYCQQYSSSSPVTFGQGTKVEIKRTGGGSGGGGSGGGASEVQLVESGGGLVQPGGSLRLSCAASGFNFSSYVMHWVRQAPGKGLEWVAVVYPDSGGTYYADSVKGRFTISADTSKNTAYLQMNSLRAEDTAVYYCSRTSSYYAFDYWGQGTLVTVSS | no binding |  | 
KRAS_G12D_A11_c16 (scFv) scFv: DIQMTQSPSSLSASVGDRVTITCRASQDVNTAVAWYQQKPGKAPKLLIYSASFLYSGVPSRFSGSRSGTDFTLTISSLQPEDFATYYCQQYSYSPITFGQGTKVEIKRTGGGSGGGGSGGGASEVQLVESGGGLVQPGGSLRLSCAASGFNISDSYMHWVRQAPGKGLEWVATFSPYSSNTWYADSVKGRFTISADTSKNTAYLQMNSLRAEDTAVYYCSRSQFTFYQYFDYWGQGTLVTVSS | no binding |  | 
KRAS_G12D_A11_c118 (scFv) scFv: DIQMTQSPSSLSASVGDRVTITCRASQDVNTAVAWYQQKPGKAPKLLIYSASFLYSGVPSRFSGSRSGTDFTLTISSLQPEDFATYYCQQYDFTPMTFGQGTKVEIKRTGGGSGGGGSGGGASEVQLVESGGGLVQPGGSLRLSCAASGFNISYAKMHWVRQAPGKGLEWVAYLTYWGGYTNYADSVKGRFTISADTSKNTAYLQMNSLRAEDTAVYYCSRGEYGTYMDYWGQGTLVTVSS | no binding |  | 
H/R/N RAS Q61R_A1_c117 (scFv) scFv: DIQMTQSPSSLSASVGDRVTITCRASQDVNTAVAWYQQKPGKAPKLLIYSASFLYSGVPSRFSGSRSGTDFTLTISSLQPEDFATYYCQQSVYDPITFGQGTKVEIKRTGGGSGGGGSGGGASEVQLVESGGGLVQPGGSLRLSCAASGFNISGSWIHWVRQAPGKGLEWVAWLYPDSDYTYYADSVKGRFTISADTSKNTAYLQMNSLRAEDTAVYYCSRAHTYAFDYWGQGTLVTVSS |  | no binding | 
H/K/N RAS Q61K_A1_c18 (scFv) scFv: DIQMTQSPSSLSASVGDRVTITCRASQDVNTAVAWYQQKPGKAPKLLIYSASFLYSGVPSRFSGSRSGTDFTLTISSLQPEDFATYYCQQYAYAPFTFGQGTKVEIKRTGGGSGGGGSGGGASEVQLVESGGGLVQPGGSLRLSCAASGFNVSYSMIHWVRQAPGKGLEWVARVWGDGGVTYYADSVKGRFTISADTSKNTAYLQMNSLRAEDTAVYYCSRGSYYAFDYWGQGTLVTVSS |  | no binding | 
KRAS_G12D_A11_c19 (scFv) scFv: DIQMTQSPSSLSASVGDRVTITCRASQDVNTAVAWYQQKPGKAPKLLIYSASFLYSGVPSRFSGSRSGTDFTLTISSLQPEDFATYYCQQYSYYPITFGQGTKVEIKRTGGGSGGGGSGGGASEVQLVESGGGLVQPGGSLRLSCAASGFNLSYSYMHWVRQAPGKGLEWVAVISGFSGNTYYADSVKGRFTISADTSKNTAYLQMNSLRAEDTAVYYCSRSDSYYTAMDYWGQGTLVTVSS | no binding |  | 
KRAS_G12D_A11_c14 (scFv) scFv: DIQMTQSPSSLSASVGDRVTITCRASQDVNTAVAWYQQKPGKAPKLLIYSASFLYSGVPSRFSGSRSGTDFTLTISSLQPEDFATYYCQQYSFYPFTFGQGTKVEIKRTGGGSGGGGSGGGASEVQLVESGGGLVQPGGSLRLSCAASGFNFGSYIHWVRQAPGKGLEWVAIISGYSGNTYYADSVKGRFTISADTSKNTAYLQMNSLRAEDTAVYYCSRSNQSAYSYMDYWGQGTLVTVSS | no binding |  | 
H/R/N RAS Q61R_A1_c119 (scFv) scFv: DIQMTQSPSSLSASVGDRVTITCRASQDVNTAVAWYQQKPGKAPKLLIYSASFLYSGVPSRFSGSRSGTDFTLTISSLQPEDFATYYCQQGQYSPFTFGQGTKVEIKRTGGGSGGGGSGGGASEVQLVESGGGLVQPGGSLRLSCAASGFNVSYEYMHWVRQAPGKGLEWVAEIYGGSDNTYYADSVKGRFTISADTSKNTAYLQMNSLRAEDTAVYYCSRPLGSYFDYWGQGTLVTVSS |  | no binding | 
KRAS_G12D_A11_c115 (scFv) scFv: DIQMTQSPSSLSASVGDRVTITCRASQDVNTAVAWYQQKPGKAPKLLIYSASFLYSGVPSRFSGSRSGTDFTLTISSLQPEDFATYYCQQYSYMPITFGQGTKVEIKRTGGGSGGGGSGGGASEVQLVESGGGLVQPGGSLRLSCAASGFNVSGQYMHWVRQAPGKGLEWVAVISPVSGNTYYADSVKGRFTISADTSKNTAYLQMNSLRAEDTAVYYCSRPMKTSYYGAFDYWGQGTLVTVSS | no binding |  | 
H/R/N RAS Q61R_A1_c116 (scFv) scFv: DIQMTQSPSSLSASVGDRVTITCRASQDVNTAVAWYQQKPGKAPKLLIYSASFLYSGVPSRFSGSRSGTDFTLTISSLQPEDFATYYCQQAHMIPITFGQGTKVEIKRTGGGSGGGGSGGGASEVQLVESGGGLVQPGGSLRLSCAASGFNFSFPGMHWVRQAPGKGLEWVAWFVGYDGYTYYADSVKGRFTISADTSKNTAYLQMNSLRAEDTAVYYCSRDYYSFSMDYWGQGTLVTVSS |  | no binding | 
p53_R248Q_A2_c10 (scFv) scFv: DIQMTQSPSSLSASVGDRVTITCRASQDVNTAVAWYQQKPGKAPKLLIYSASFLYSGVPSRFSGSRSGTDFTLTISSLQPEDFATYYCQQSGYAPITFGQGTKVEIKRTGGGSGGGGSGGGASEVQLVESGGGLVQPGGSLRLSCAASGFNISYYSMHWVRQAPGKGLEWVADVDPDSDYTEYADSVKGRFTISADTSKNTAYLQMNSLRAEDTAVYYCSRSWIHMFSMDYWGQGTLVTVSS |  |  | binding result [3]: no binding
KRAS_G12D_A11_c110 (scFv) scFv: DIQMTQSPSSLSASVGDRVTITCRASQDVNTAVAWYQQKPGKAPKLLIYSASFLYSGVPSRFSGSRSGTDFTLTISSLQPEDFATYYCQQYEYVPHTFGQGTKVEIKRTGGGSGGGGSGGGASEVQLVESGGGLVQPGGSLRLSCAASGFNISYGYMHWVRQAPGKGLEWVAKFHYGSGNTYYADSVKGRFTISADTSKNTAYLQMNSLRAEDTAVYYCSRSNYYYLDYWGQGTLVTVSS | no binding |  | 
KRAS_G12D_A11_c17 (scFv) scFv: DIQMTQSPSSLSASVGDRVTITCRASQDVNTAVAWYQQKPGKAPKLLIYSAYFLYSGVPSRFSGSRSGTDFTLTISSLQPEDFATYYCQQYSAYYQPITFGQGTKVEIKRTGGGSGGGGSGGGASEVQLVESGGGLVQPGGSLRLSCAASGFNIFSDQMHWVRQAPGKGLEWVAGFMPYDSYYTNYADSVKGRFTISADTSKNTAYLQMNSLRAEDTAVYYCSRMSVRNAFDYWGQGTLVTVSS | no binding |  | 
KRAS_G12D_A11_c112 (scFv) scFv: DIQMTQSPSSLSASVGDRVTITCRASQDVNTAVAWYQQKPGKAPKLLIYSASFLYSGVPSRFSGSRSGTDFTLTISSLQPEDFATYYCQQYSYMPITFGQGTKVEIKRTGGGSGGGGSGGGASEVQLVESGGGLVQPGGSLRLSCAASGFNISYQHIHWVRQAPGKGLEWVAVFMPYQGSTYYADSVKGRFTISADTSKNTAYLQMNSLRAEDTAVYYCSRANIYSSHSFFDYWGQGTLVTVSS | no binding |  | 
KRAS_G12D_A11_c117 (scFv) scFv: DIQMTQSPSSLSASVGDRVTITCRASQDVNTAVAWYQQKPGKAPKLLIYSASFLYSGVPSRFSGSRSGTDFTLTISSLQPEDFATYYCQQYDYRPVTFGQGTKVEIKRTGGGSGGGGSGGGASEVQLVESGGGLVQPGGSLRLSCAASGFNVSTSGMHWVRQAPGKGLEWVAFIYGAYSGTYYADSVKGRFTISADTSKNTAYLQMNSLRAEDTAVYYCSRSQSYTYWSAMDYWGQGTLVTVSS | no binding |  | 
H/K/N RAS Q61K_A1_c16 (scFv) scFv: DIQMTQSPSSLSASVGDRVTITCRASQDVNTAVAWYQQKPGKAPKLLIYSASFLYSGVPSRFSGSRSGTDFTLTISSLQPEDFATYYCQQHYYSPVTFGQGTKVEIKRTGGGSGGGGSGGGASEVQLVESGGGLVQPGGSLRLSCAASGFNIFYQDMHWVRQAPGKGLEWVAMIYPDYDYTYYADSVKGRFTISADTSKNTAYLQMNSLRAEDTAVYYCSRTYSVYMDYWGQGTLVTVSS |  | no binding | 
H/R/N RAS Q61R_A1_c118 (scFv) scFv: DIQMTQSPSSLSASVGDRVTITCRASQDVNTAVAWYQQKPGKAPKLLIYSASFLYSGVPSRFSGSRSGTDFTLTISSLQPEDFATYYCQQSYTSPLTFGQGTKVEIKRTGGGSGGGGSGGGASEVQLVESGGGLVQPGGSLRLSCAASGFNIYYGVMHWVRQAPGKGLEWVAMIYPDSSWTYYADSVKGRFTISADTSKNTAYLQMNSLRAEDTAVYYCSRDQDFHYMNYYLSYALDYWGQGTLVTVSS |  | no binding | 
H/K/N RAS Q61H_A1_c10 (scFv) scFv: DIQMTQSPSSLSASVGDRVTITCRASQDVNTAVAWYQQKPGKAPKLLIYSASFLYSGVPSRFSGSRSGTDFTLTISSLQPEDFATYYCQQGYFYYPNTFGQGTKVEIKRTGGGSGGGGSGGGASEVQLVESGGGLVQPGGSLRLSCAASGFNIGYYGMHWVRQAPGKGLEWVATVYPGGGYTSYADSVKGRFTISADTSKNTAYLQMNSLRAEDTAVYYCSRYYYYGFDYWGQGTLVTVSS |  | no binding | 
KRAS_G12D_A11_c114 (scFv) scFv: DIQMTQSPSSLSASVGDRVTITCRASQDVNTAVAWYQQKPGKAPKLLIYSASFLYSGVPSRFSGSRSGTDFTLTISSLQPEDFATYYCQQYAYYPVTFGQGTKVEIKRTGGGSGGGGSGGGASEVQLVESGGGLVQPGGSLRLSCAASGFNLSGYYMHWVRQAPGKGLEWVAWFSPYSGYTYYADSVKGRFTISADTSKNTAYLQMNSLRAEDTAVYYCSRTHSSIYHSFDYWGQGTLVTVSS | no binding |  | 
H/R/N RAS Q61R_A1_c122 (scFv) scFv: DIQMTQSPSSLSASVGDRVTITCRASQDVNTAVAWYQQKPGKAPKLLIYSASFLYSGVPSRFSGSRSGTDFTLTISSLQPEDFATYYCQQYWYLPTTFGQGTKVEIKRTGGGSGGGGSGGGASEVQLVESGGGLVQPGGSLRLSCAASGFNISWYDIHWVRQAPGKGLEWVADIEPSVGYTYYADSVKGRFTISADTSKNTAYLQMNSLRAEDTAVYYCSRSYPYYYFDYWGQGTLVTVSS |  | no binding | 
